Source: patent publication US20250326839A1 (VIGIL NEUROSCIENCE, published 2025)

T1: human TREM2 (human, UniProt Q9NZC2 19-174, limits assumed)
T1 construct: also called triggering receptor expressed on myeloid cells 2
T1 sequence: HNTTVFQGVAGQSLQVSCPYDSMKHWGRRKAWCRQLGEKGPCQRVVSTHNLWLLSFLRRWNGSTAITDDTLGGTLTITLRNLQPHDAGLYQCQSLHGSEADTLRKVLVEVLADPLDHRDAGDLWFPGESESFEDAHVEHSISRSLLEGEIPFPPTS


Tests used:
[1] = target: T1, human TREM2; assay: 2nd screen, 2 nM
[2] = target: T1, human TREM2; assay: 2nd screen, 10 nM
[3] = target: T1, human TREM2; assay: 1st screen, 10 nM Ab

Binder | Binding Signal [1] | Binding Signal [2] | Binding Signal [3]
V3 (antibody, V domains shown, also called 6E7 variant V3; LV-101/HV-101) VH: EVQLVQSGAEVKKPGESLKISCKGSGYSFASYWIAWVRQMPGKGLEWMGIIYPGDSDTRYSPSFQDQVTISADKSISTAYLQWSSLKASDTAMYFCARGRTFYYDSSDYFDYWGQGTLVTVSS VL: DIQMTQSPSSVSASVGDRVTITCRASQGISSWLAWYQQKPGKAPKLLIYAASSRQNGVPSRFSGSGSGTDFTLTISSLQPEDFATYFCQQADRFPRTFGQGTKLEIK | 1.95 fold over 6E7 parental antibody | 2.24 fold over 6E7 parental antibody | 1.97 fold over 6E7 parental antibody
V4 (antibody, V domains shown, also called 6E7 variant V4) VH: EVQLVQSGAEVKKPGESLKISCKGSGYSFGSYWIAWVRQMPGKGLEWMGIIYPGDSDTRVSPSFQGQVTISADKSISTAYLQWSSLKASDTAMYFCARSRTFYYDSSDYFDYWGQGTLVTVSS VL: DIQMTQSPSSVSASVGDRVTITCRASQGISSWLAWYQQKPGKAPKLLIYAASRLQNGVPSRFSGSGSGTDFTLTISSLQPEDFATYFCQQADSYPRTFGQGTKLEIK | 5.88 fold over 6E7 parental antibody | 5.51 fold over 6E7 parental antibody | 6 fold over 6E7 parental antibody
V15 (antibody, V domains shown, also called 6E7 variant V15) VH: EVQLVQSGAEVKKPGESLKISCKGSGYSFASYWIAWVRQMPGKGLEWMGTIYPGDSDTRYSPSFQGQVTISADKSISTAYLQWSSLKASDTAMYFCARSRTFYYDSSDYFDYWGQGTLVTVSS VL: DIQMTQSPSSVSASVGDRVTITCRASQGISSWLAWYQQKPGKAPKLLIYAASWLQNGVPSRFSGSGSGTDFTLTISSLQPEDFATYFCQQADSYPRTFGQGTKLEIK | 4.72 fold over 6E7 parental antibody | 4.78 fold over 6E7 parental antibody | 5.23 fold over 6E7 parental antibody
V17 (antibody, V domains shown, also called 6E7 variant V17) VH: EVQLVQSGAEVKKPGESLKISCKGSGYSFGSYWIAWVRQMPGKGLEWMGIIYPGDSDTRYSPSFQGQVTISADKSISTAYLQWSSLKASDTAMYFCARSRTFYYDSSDYFDYWGQGTLVTVSS VL: DIQMTQSPSSVSASVGDRVTITCRASQGISSWLAWYQQKPGKAPKLLIYAASSRQNGVPSRFSGSGSGTDFTLTISSLQPEDFATYFCQQADSSPRTFGQGTKLEIK | 4.22 fold over 6E7 parental antibody | 5.51 fold over 6E7 parental antibody | 5.37 fold over 6E7 parental antibody
V29 (antibody, V domains shown, also called 6E7 variant V29) VH: EVQLVQSGAEVKKPGESLKISCKGSGYSFKSYWIAWVRQMPGKGLEWMGIIYPGDSDTRYSPSFQGQVTISADKSISTAYLQWSSLKASDTAMYFCARQRTFYYDSSDYFDYWGQGTLVTVSS VL: DIQMTQSPSSVSASVGDRVTITCRASQGISSWLAWYQQKPGKAPKLLIYAASSLQNGVPSRFSGSGSGTDFTLTISSLQPEDFATYFCQQADSFPRTFGQGTKLEIK | 0.84 fold over 6E7 parental antibody | 1.67 fold over 6E7 parental antibody | 1.53 fold over 6E7 parental antibody
V24 (antibody, V domains shown, also called 6E7 variant V24) VH: EVQLVQSGAEVKKPGESLKISCKGSGYSFTSYWIAWVRQMPGKGLEWMGIIYPGDSDVRYSPSFQGQVTISADKSISTAYLQWSSLKASDTAMYFCARSRTFYYDSSDYFDYWGQGTLVTVSS VL: DIQMTQSPSSVSASVGDRVTITCRASQGISSWLAWYQQKPGKAPKLLIYAASSLQKGVPSRFSGSGSGTDFTLTISSLQPEDFATYFCQQADSFPHTFGQGTKLEIK | 1.42 fold over 6E7 parental antibody | 2.9 fold over 6E7 parental antibody | 2.64 fold over 6E7 parental antibody
V25 (antibody, V domains shown, also called 6E7 variant V25) VH: EVQLVQSGAEVKKPGESLKISCKGSGYSFGSYWIAWVRQMPGKGLEWMGLIYPGDSDTRYSPSFQGQVTISADKSISTAYLQWSSLKASDTAMYFCARSRTFYYDSSDYFDYWGQGTLVTVSS VL: DIQMTQSPSSVSASVGDRVTITCRASQGISSWLAWYQQKPGKAPKLLIYAASSLANGVPSRFSGSGSGTDFTLTISSLQPEDFATYFCQQADSMPRTFGQGTKLEIK | 3.15 fold over 6E7 parental antibody | 4.7 fold over 6E7 parental antibody | 4.23 fold over 6E7 parental antibody
V27 (antibody, V domains shown, also called 6E7 variant V27; LV-103/HV-103) VH: EVQLVQSGAEVKKPGESLKISCKGSGYSFTSYWIAWVRQMPGKGLEWMGIIYPGDSDTRYAPSFQGQVTISADKSISTAYLQWSSLKASDTAMYFCVRSRTFYYDSSDYFDYWGQGTLVTVSS VL: DIQMTQSPSSVSASVGDRVTITCRASQGISSWLAWYQQKPGKAPKLLIYAASSLQRGVPSRFSGSGSGTDFTLTISSLQPEDFATYFCQQADSFPRTFGQGTKLEIK | 5.67 fold over 6E7 parental antibody | 5.69 fold over 6E7 parental antibody | 5.5 fold over 6E7 parental antibody
V5 (antibody, V domains shown, also called 6E7 variant V5) VH: EVQLVQSGAEVKKPGESLKISCKGSGYSFTSYWIAWVRQMPGKGLEWMGTIYPGDSDTRYSPSFQGQVTISADKSISTAYLQWSSLKASDTAMYFCARQRTFYYDSSDYFDYWGQGTLVTVSS VL: DIQMTQSPSSVSASVGDRVTITCRASQGISSWLAWYQQKPGKAPKLLIYAASSLQNGVPSRFSGSGSGTDFTLTISSLQPEDFATYFCQQADSHPRTFGQGTKLEIK | 1.25 fold over 6E7 parental antibody | 2.84 fold over 6E7 parental antibody | 2.73 fold over 6E7 parental antibody
V13 (antibody, V domains shown, also called 6E7 variant V13) VH: EVQLVQSGAEVKKPGESLKISCKGSGYSFGSYWIAWVRQMPGKGLEWMGIIYPGDSDTRYSASFQGQVTISADKSISTAYLQWSSLKASDTAMYFCARGRTFYYDSSDYFDYWGQGTLVTVSS VL: DIQMTQSPSSVSASVGDRVTITCRASQGISSWLAWYQQKPGKAPKLLIYAASSLQGGVPSRFSGSGSGTDFTLTISSLQPEDFATYFCQQADSMPRTFGQGTKLEIK | 1.15 fold over 6E7 parental antibody | 1.35 fold over 6E7 parental antibody | 1.31 fold over 6E7 parental antibody
V36 (antibody, V domains shown, also called 6E7 variant V36) VH: EVQLVQSGAEVKKPGESLKISCKGSGYSFTSYWLAWVRQMPGKGLEWMGIIYPGDSDTRYSPSFQGQVTISADKSISTAYLQWSSLKASDTAMYFCARSRTFYYDSSDYFDYWGQGTLVTVSS VL: DIQMTQSPSSVSASVGDRVTITCRASQGISSWLAWYQQKPGKAPKLLIYAASSRQNGVPSRFSGSGSGTDFTLTISSLQPEDFATYFCQQADSYPRTFGQGTKLEIK | 4 fold over 6E7 parental antibody | 3.44 fold over 6E7 parental antibody | 3.38 fold over 6E7 parental antibody
V38 (antibody, V domains shown, also called 6E7 variant V38) VH: EVQLVQSGAEVKKPGESLKISCKGSGYSFGSYWIAWVRQMPGKGLEWMGIIYPGDSDVRYSPSFQGQVTISADKSISTAYLQWSSLKASDTAMYFCARQRTFYYDSSDYFDYWGQGTLVTVSS VL: DIQMTQSPSSVSASVGDRVTITCRASQGISSWLAWYQQKPGKAPKLLIYAASSRQNGVPSRFSGSGSGTDFTLTISSLQPEDFATYFCQQADSHPRTFGQGTKLEIK | 3.44 fold over 6E7 parental antibody | 4.36 fold over 6E7 parental antibody | 4.34 fold over 6E7 parental antibody
V37 (antibody, V domains shown, also called 6E7 variant V37) VH: EVQLVQSGAEVKKPGESLKISCKGSGYSHTSYWIAWVRQMPGKGLEWMGIIYPGDSDTRYSPSFAGQVTISADKSISTAYLQWSSLKASDTAMYFCARSRTFYYDSSDYFDYWGQGTLVTVSS VL: DIQMTQSPSSVSASVGDRVTITCRASQGISSWLAWYQQKPGKAPKLLIYAASSLQWGVPSRFSGSGSGTDFTLTISSLQPEDFATYFCQQADSYPRTFGQGTKLEIK | 3.69 fold over 6E7 parental antibody | 3.49 fold over 6E7 parental antibody | 3.46 fold over 6E7 parental antibody
V14 (antibody, V domains shown, also called 6E7 variant V14) VH: EVQLVQSGAEVKKPGESLKISCKGSGYSFGSYWIAWVRQMPGKGLEWMGIIYPGDQDTRYSPSFQGQVTISADKSISTAYLQWSSLKASDTAMYFCARGRTFYYDSSDYFDYWGQGTLVTVSS VL: DIQMTQSPSSVSASVGDRVTITCRASQGISSWLAWYQQKPGKAPKLLIYAASRLQNGVPSRFSGSGSGTDFTLTISSLQPEDFATYFCQQADSFPRTFGQGTKLEIK | 2.57 fold over 6E7 parental antibody | 4.64 fold over 6E7 parental antibody | 4.71 fold over 6E7 parental antibody
V39 (antibody, V domains shown, also called 6E7 variant V39) VH: EVQLVQSGAEVKKPGESLKISCKGSGYSFGSYWIAWVRQMPGKGLEWMGIIYPGDSDTRYNPSFQGQVTISADKSISTAYLQWSSLKASDTAMYFCARGRTFYYDSSDYFDYWGQGTLVTVSS VL: DIQMTQSPSSVSASVGDRVTITCRASQGISSWLAWYQQKPGKAPKLLIYAASSLVNGVPSRFSGSGSGTDFTLTISSLQPEDFATYFCQQADSSPRTFGQGTKLEIK | 5.11 fold over 6E7 parental antibody | 5.81 fold over 6E7 parental antibody | 6.15 fold over 6E7 parental antibody
V26 (antibody, V domains shown, also called 6E7 variant V26) VH: EVQLVQSGAEVKKPGESLKISCKGSGYSFTSYWIGWVRQMPGKGLEWMGTIYPGDSDTRYSPSFQGQVTISADKSISTAYLQWSSLKASDTAMYFCARQRTMYYDSSDYFDAWGQGTLVTVSS VL: DIQMTQSPSSVSASVGDRVTITCRASQGISSWLAWYQQKPGKAPKLLIYAASSLQRGVPSRFSGSGSGTDFTLTISSLQPEDFATYFCQQADSYPRTFGQGTKLEIK | 2.83 fold over 6E7 parental antibody | 3.47 fold over 6E7 parental antibody | 3.57 fold over 6E7 parental antibody
V28 (antibody, V domains shown, also called 6E7 variant V28) VH: EVQLVQSGAEVKKPGESLKISCKGSGYSFQSYWIAWVRQMPGKGLEWMGTIYPGDSDTRYSPSFQGQVTISADKSISTAYLQWSSLKASDTAMYFCARQRTFFYDSSDYFDYWGQGTLVTVSS VL: DIQMTQSPSSVSASVGDRVTITCRASQGISSWLAWYQQKPGKAPKLLIYAASSLQSGVPSRFSGSGSGTDFTLTISSLQPEDFATYFCQQADSLPRTFGQGTKLEIK | 2.63 fold over 6E7 parental antibody | 3.61 fold over 6E7 parental antibody | 3.08 fold over 6E7 parental antibody
V16 (antibody, V domains shown, also called 6E7 variant V16) VH: EVQLVQSGAEVKKPGESLKISCKGSGYSMTSYWIAWVRQMPGKGLEWMGIIYPGDGDTRYSPSFQGQVTISADKSISTAYLQWSSLKASDTAMYFCARSRTFYYDSSDYFDYWGQGTLVTVSS VL: DIQMTQSPSSVSASVGDRVTITCRASQGISSWLAWYQQKPGKAPKLLIYAASNLQNGVPSRFSGSGSGTDFTLTISSLQPEDFATYFCQQADSFPRTFGQGTKLEIK | 3.57 fold over 6E7 parental antibody | 4.04 fold over 6E7 parental antibody | 4.01 fold over 6E7 parental antibody
